Reference: patent US20080134370A1, “Novel Altered Gene from Rice Anthranilic Acid Synthase Gene Oasa2 and Use Thereof” (priority 2005, published 2008)

Key:
[1] = system: rice anthranilate synthase (OASA2 protein); assay: Enzyme Activity Measurement 2: anthranilate synthase activity in reaction system using the β subunit of rice anthranilate synthase (glutamine); assay type: biochemical
Description: (§1) The OASA2 protein synthesized by the wheat embryo acellular system was quantified using rabbit anti-OASA2 antibody that had been prepared based on the peptide fragment with the sequence at position 161 to 175 (MDHEKGKVTEQVVDD) of the amino acid sequence of OASA2 protein. A refined sample of OASA2 protein was also used for the quantification. Western blot analysis was performed according to the method of Towbin et al. (Towbin, H., Staehelin, T. and Gordon, J. 1979. Electrophoretic transfer of proteins from polyacrylamide gels to nitrocellulose sheets: procedure and some applications. Proc Natl Acad Sci USA 76: 4350-4354). The estimated quantity of OASA2 protein was used for the correction of enzyme activity, as will be described later.
(§2) As is known, activity of OASA2 protein is under the feedback inhibition by tryptophan. It is therefore necessary to eliminate tryptophan in the protein synthesis reaction mixture, and replace the environment of the expressed protein with a buffer component for AS activity measurement. To this end, the protein synthesis reaction mixture was replaced with buffer A (50 mM Tris-HCl, pH7.6; 0.05 mM EDTA; 2 mM MgCl2; 0.05 mM DTT; 5% glycerol), using Microspin G-25 columns (Amersham Biosciences)<
Ninety μl of reaction solution (20 mM Tris-HCl, pH 8.3; 5 mM glutamine; 0.2 to 0.8 mM chorismate; 10 mM MgCl2) was supplemented with 2.5 μl of crude extract exchanged with buffer, and the reaction mixture was allowed to react for 1 hour at 32° C. The preparation of rice anthranilate synthase β subunit and quantification of the product by the Western blot method were performed according to the method of Kanno et al. (Kanno et al. (2004) Plant Molecular Biology 54, 11-22) The reaction was stopped by adding 10 μl of 1N HCl, and synthesized anthranilate was extracted with 300 μl of ethyl acetate. The yield of anthranilate was measured with Wallac 1420 ARVOsx-FL (Perkin-Elmer Life Sciences Japan. Co., Ltd.) at the excitation wavelength of 355 nm/fluorescence (emission) 460 nm. […]

[2] = system: Yeast TRP2 gene defective mutant strains; assay: Free tryptophan content in yeast TRP2 gene defective mutant strains expressing OASA2 gene; assay type: cell-based
Text: Yeasts with a defective TRP2 gene, analogous to OASA2 gene, require tryptophan for growth. It can therefore be said that TRP2 activity is complemented by OASA2 gene if OASA2 gene introduced into the yeast allows for growth without tryptophan. Further, the activity of mutant OASA2 gene can be assayed by causing the yeast to express the mutant OASA2 gene having resistance to tryptophan feedback inhibition and by measuring accumulation of free tryptophan in the organism.
Expression vectors were constructed by performing PCR with the primers below. […] As described above, the N terminus region of the OASA2 protein includes a chloroplast transit signal, and as such the primers were designed to exclude the signal sequence in the product of expression, as in the Split-PCR primers described in Section (2) above. […]
The yeast transformant was separated into single colonies on synthetic complete agar medium (0.67% amino acid-less bactoyeast nitrogen base, uracil-free 0.2% dropout mixture, 2% bactoagar) supplemented with 2% glucose. […] The preparation was then applied to a high-performance liquid chromatography (HPLC) device (the product of Waters, Waters Alliance HPLC FLD System 2695) and free tryptophan content was measured. For HPLC, a Xterra RP18 column (4.6×150 mm) (Waters) was used, and detection of tryptophan was made at the excitation wavelength 278 nm/fluorescence wavelength 348 nm.

[3] = system: rice anthranilate synthase (OASA2 protein); assay: Enzyme Activity Measurement 1: anthranilate synthase activity with 100 mM NH4Cl as amide group donating substrate; assay type: biochemical; conditions: without tryptophan, FIG. 1 and FIG. 2
Description: as §1
The OASA2 protein, which is the α subunit of rice anthranilate synthase catalyzes the reaction producing anthranilate from chorismate, using ammonia that originates in the amide group of glutamine supplied by the β subunit.
as §2
Ninety μl of reaction solution (20 mM Tris-HCl, pH 8.3; 100 mM NH4Cl; 0.5 mM chorismate; 10 mM MgCl2) was supplemented with 2.5 μl of crude extract exchanged with buffer, and the reaction mixture was allowed to react for 1 hour at 32° C. The reaction was stopped by adding 10 μl of 1N HCl, and synthesized anthranilate was extracted with 300 μl of ethyl acetate. The yield of anthranilate was measured with Wallac 1420 ARVOsx-FL (Perkin-Elmer Life Sciences Japan. Co., Ltd.) at the excitation wavelength of 355 nm/fluorescence (emission) 460 nm. […]

B1: Wt: wild type rice anthranilate synthase encoded by rice anthranilate synthase gene OASA2 (SEQ ID NO: 1) (protein, listed as Oryza sativa)
chain: MESIAAATFTPSRLAARPATPAAAAAPVRARAAVAAGGRRRTSRRGGVRCSAGKPEASAVINGSAAARAAEEDRRRFFEAAERGSGKGNLVPMWECIVSDHLTPVLAYRCLVPEDNMETPSFLFESVEQGPEGTTNVGRYSMVGAHPVMEVVAKEHKVTIMDHEKGKVTEQVVDDPMQIPRSMMEGWHPQQIDQLPDSFTGGWVGFFSYDTVRYVEKKKLPFSGAPQDDRNLPDVHLGLYDDVLVFDNVEKKVYVIHWVNLDRHATTEDAFQDGKSRLNLLLSKVHNSNVPKLSPGFVKLHTRQFGTPLNKSTMTSDEYKNAVMQAKEHIMAGDIFQIVLSQRFERRTYANPFEVYRALRIVNPSPYMAYVQARGCVLVASSPEILTRVRKGKIINRPLAGTVRRGKTEKEDEMQEQQLLSDEKQCAEHIMLVDLGRNDVGKVSKPGSVKVEKLMNIERYSHVMHISSTVSGELDDHLQSWDALRAALPVGTVSGAPKVKAMELIDELEVTRRGPYSGGLGGISFDGDMLIALALRTIVFSTAPSHNTMYSYKDTERRREWVAHLQAGAGIVADSSPDDEQRECENKAAALARAIDLAESAFVDKE
**Q.** Which “Relative Ratio (enzyme activity compared with the wild type)” value ([1]; Vmax relative to Wt) does the source give for B1 here?
**A.** Its value is 1.00 fold.

**Q.** What about the “enzyme activity with tryptophan relative to 100% enzyme activity without tryptophan” value ([1]; tryptophan 50 μM, FIG. 3) of the same molecule?
**A.** The value was “below 10%”.

**Q.** And the Vmax ([1]; with β subunit, 5 mM glutamine, 0.2 to 0.8 mM chorismate)?
**A.** The Vmax was 215 nmol/min/mg OASA2 Protein.

**Q.** And the “Relative Amount” value ([2]; free tryptophan relative to yeast expressing Wt OASA2 gene)?
**A.** Its value is 1.0 fold.

**Q.** What about the “Free Tryptophan Content” value ([2]; yeast transformant, galactose medium without tryptophan, 30° C., 2 days) of the same molecule?
**A.** Its value is 126 ± 7 pmol/mg wet weight.

B2: N351D: mutant OASA2 protein, substitution of asparatate residue for asparagine residue at position 351 (protein, UniProt Q9XJ29 50-606, looked up, variant N351D)
Anthranilate synthase alpha …: CSAGKPEASAVINGSAAARAAEEDRRRFFEAAERGSGKGNLVPMWECIVSDHLTPVLAYRCLVPEDNMETPSFLFESVEQGPEGTTNVGRYSMVGAHPVMEVVAKEHKVTIMDHEKGKVTEQVVDDPMQIPRSMMEGWHPQQIDQLPDSFTGGWVGFFSYDTVRYVEKKKLPFSGAPQDDRNLPDVHLGLYDDVLVFDNVEKKVYVIHWVNLDRHATTEDAFQDGKSRLNLLLSKVHNSNVPKLSPGFVKLHTRQFGTPLNKSTMTSDEYKNAVMQAKEHIMAGDIFQIVLSQRFERRTYADPFEVYRALRIVNPSPYMAYVQARGCVLVASSPEILTRVRKGKIINRPLAGTVRRGKTEKEDEMQEQQLLSDEKQCAEHIMLVDLGRNDVGKVSKPGSVKVEKLMNIERYSHVMHISSTVSGELDDHLQSWDALRAALPVGTVSGAPKVKAMELIDELEVTRRGPYSGGLGGISFDGDMLIALALRTIVFSTAPSHNTMYSYKDTERRREWVAHLQAGAGIVADSSPDDEQRECENKAAALARAIDLAESAFVDKE
**Q.** How did the “enzyme activity (anthranilate yield) compared with wild type” value (shortened to “enzyme activity … compared with wild type”) [3] turn out when B2 was run?
**A.** Its value is “improved enzyme activity over the wild type”.

B3: L530D: mutant OASA2 protein, substitution of asparatate residue for leucine residue at position 530 (protein, UniProt Q9XJ29 50-606, looked up, variant L530D)
Anthranilate synthase alpha …: CSAGKPEASAVINGSAAARAAEEDRRRFFEAAERGSGKGNLVPMWECIVSDHLTPVLAYRCLVPEDNMETPSFLFESVEQGPEGTTNVGRYSMVGAHPVMEVVAKEHKVTIMDHEKGKVTEQVVDDPMQIPRSMMEGWHPQQIDQLPDSFTGGWVGFFSYDTVRYVEKKKLPFSGAPQDDRNLPDVHLGLYDDVLVFDNVEKKVYVIHWVNLDRHATTEDAFQDGKSRLNLLLSKVHNSNVPKLSPGFVKLHTRQFGTPLNKSTMTSDEYKNAVMQAKEHIMAGDIFQIVLSQRFERRTYANPFEVYRALRIVNPSPYMAYVQARGCVLVASSPEILTRVRKGKIINRPLAGTVRRGKTEKEDEMQEQQLLSDEKQCAEHIMLVDLGRNDVGKVSKPGSVKVEKLMNIERYSHVMHISSTVSGELDDHLQSWDALRAALPVGTVSGAPKVKAMELIDELEVTRRGPYSGGLGGISFDGDMDIALALRTIVFSTAPSHNTMYSYKDTERRREWVAHLQAGAGIVADSSPDDEQRECENKAAALARAIDLAESAFVDKE
**Q.** With B3 as the molecule, how does the “enzyme activity … compared with wild type” value [3] read?
**A.** Its value is “improved enzyme activity over the wild type”.

B4: L530A: mutant OASA2 protein, substitution of alanine residue for leucine residue at position 530 (protein, UniProt Q9XJ29 50-606, looked up, variant L530A)
Anthranilate synthase alpha …: CSAGKPEASAVINGSAAARAAEEDRRRFFEAAERGSGKGNLVPMWECIVSDHLTPVLAYRCLVPEDNMETPSFLFESVEQGPEGTTNVGRYSMVGAHPVMEVVAKEHKVTIMDHEKGKVTEQVVDDPMQIPRSMMEGWHPQQIDQLPDSFTGGWVGFFSYDTVRYVEKKKLPFSGAPQDDRNLPDVHLGLYDDVLVFDNVEKKVYVIHWVNLDRHATTEDAFQDGKSRLNLLLSKVHNSNVPKLSPGFVKLHTRQFGTPLNKSTMTSDEYKNAVMQAKEHIMAGDIFQIVLSQRFERRTYANPFEVYRALRIVNPSPYMAYVQARGCVLVASSPEILTRVRKGKIINRPLAGTVRRGKTEKEDEMQEQQLLSDEKQCAEHIMLVDLGRNDVGKVSKPGSVKVEKLMNIERYSHVMHISSTVSGELDDHLQSWDALRAALPVGTVSGAPKVKAMELIDELEVTRRGPYSGGLGGISFDGDMAIALALRTIVFSTAPSHNTMYSYKDTERRREWVAHLQAGAGIVADSSPDDEQRECENKAAALARAIDLAESAFVDKE
**Q.** B4 was tested. Which “enzyme activity … compared with wild type” value [3] did it give?
**A.** Its value is “improved enzyme activity over the wild type”.
